# Results taken from US12077763B2, “RNA-based control of powdery mildew” (Greenlight Biosciences, Inc., priority 2021, dated 2024).
# B1: GS3610 (nucleic acid)
# sense: AUCAAACUGGGAGAGAUCAGAAACUAAGCUUGUGGAGCUGUGAAUCUUAACAGGGGUGUAAGCAUUUAGUUCCGAAACUCGUUGAGCUGAGACAAUAUCUCUAGGUUUUCCUAUAUCUUCUGGGUUAAGAAAGAAUUGAGAUGAUAGGUCAGCGAUAGUUGCGGGAGCGGGAUCGUAUAAUGUUAGACUUUUAACUCCAGCCAGAGCUAUAUUCUUAGCUAUUUCGAUACCAAGACCUUUCAAGCCAAUAAUAAGAAUAUUCGAUGCACUCAUUCGUUUCAUAGCCUCGUGUCCAAGAAC
# antisense: GUUCUUGGACACGAGGCUAUGAAACGAAUGAGUGCAUCGAAUAUUCUUAUUAUUGGCUUGAAAGGUCUUGGUAUCGAAAUAGCUAAGAAUAUAGCUCUGGCUGGAGUUAAAAGUCUAACAUUAUACGAUCCCGCUCCCGCAACUAUCGCUGACCUAUCAUCUCAAUUCUUUCUUAACCCAGAAGAUAUAGGAAAACCUAGAGAUAUUGUCUCAGCUCAACGAGUUUCGGAACUAAAUGCUUACACCCCUGUUAAGAUUCACAGCUCCACAAGCUUAGUUUCUGAUCUCUCCCAGUUUGAU
# B2: GS3609 (nucleic acid)
# sense: CUGUCAAUAUUACAGCUUGAUAUGAAUCAAACUGGGAGAGAUCAGAAACUAAGCUUGUGGAGCUGUGAAUCUUAACAGGGGUGUAAGCAUUUAGUUCCGAAACUCGUUGAGCUGAGACAAUAUCUCUAGGUUUUCCUAUAUCUUCUGGGUUAAGAAAGAAUUGAGAUGAUAGGUCAGCGAUAGUUGCGGGAGCGGGAUCGUAUAAUGUUAGACUUUUAACUCCAGCCAGAGCUAUAUUCUUAGCUAUUUCGAUACCAAGACCUUUCAAGCCAAUAAUAAGAAUAUUCGAUGCACUCAUUCGUUUCAUAGCCUCGUGUCCAAGAACGUAGAGUUGCCUACUGUAUAAAGAC
# antisense: GUCUUUAUACAGUAGGCAACUCUACGUUCUUGGACACGAGGCUAUGAAACGAAUGAGUGCAUCGAAUAUUCUUAUUAUUGGCUUGAAAGGUCUUGGUAUCGAAAUAGCUAAGAAUAUAGCUCUGGCUGGAGUUAAAAGUCUAACAUUAUACGAUCCCGCUCCCGCAACUAUCGCUGACCUAUCAUCUCAAUUCUUUCUUAACCCAGAAGAUAUAGGAAAACCUAGAGAUAUUGUCUCAGCUCAACGAGUUUCGGAACUAAAUGCUUACACCCCUGUUAAGAUUCACAGCUCCACAAGCUUAGUUUCUGAUCUCUCCCAGUUUGAUUCAUAUCAAGCUGUAAUAUUGACAG
# B3: GS3612 (nucleic acid)
# sense: AUGAGCUGGUCUUUCAGUGGAAUAUCUGUCAAUAUUACAGCUUGAUAUGAAUCAAACUGGGAGAGAUCAGAAACUAAGCUUGUGGAGCUGUGAAUCUUAACAGGGGUGUAAGCAUUUAGUUCCGAAACUCGUUGAGCUGAGACAAUAUCUCUAGGUUUUCCUAUAUCUUCUGGGUUAAGAAAGAAUUGAGAUGAUAGGUCAGCGAUAGUUGCGGGAGCGGGAUCGUAUAAUGUUAGACUUUUAACUCCAGCCAGAGCUAUAUUCUUAGCUAUUUCGAUACCAAGACCUUUCAAGCCAAUAAUAAGAAUAUUCGAUGCACUCAUUCGUUUCAUAGCCUCGUGUCCAAGAACGUAGAGUUGCCUACUGUAUAAAGACUCAUCGAUAACAUUAUUAUUUUCUU
# antisense: AAGAAAAUAAUAAUGUUAUCGAUGAGUCUUUAUACAGUAGGCAACUCUACGUUCUUGGACACGAGGCUAUGAAACGAAUGAGUGCAUCGAAUAUUCUUAUUAUUGGCUUGAAAGGUCUUGGUAUCGAAAUAGCUAAGAAUAUAGCUCUGGCUGGAGUUAAAAGUCUAACAUUAUACGAUCCCGCUCCCGCAACUAUCGCUGACCUAUCAUCUCAAUUCUUUCUUAACCCAGAAGAUAUAGGAAAACCUAGAGAUAUUGUCUCAGCUCAACGAGUUUCGGAACUAAAUGCUUACACCCCUGUUAAGAUUCACAGCUCCACAAGCUUAGUUUCUGAUCUCUCCCAGUUUGAUUCAUAUCAAGCUGUAAUAUUGACAGAUAUUCCACUGAAAGACCAGCUCAU
# B4: GS3606 (nucleic acid)
# sense: UAAGGUUGUGUCGGACAACACGAUUCAUACGAGCACUCCCGUCAUCUAAAUCAUCAUCUGCGAGUACAAUUAAAACAGUAUCCUUUCGCUUCUUCCCCUUAACUAGGACAGUAUCUCCACGAAAAAGCUGCAAAGUUUCCAUGGUAUUAUUUGACAGUGCAAUAACAGAGUUAUCAUCGUUGAUGGCAUCUGUUACAAUUAAGGAAUUUGGCUUUUUCUUCUUUUUUAAAAUAGCAGUCGCAGUAGCAUCAAUCGUCUUUUGUUCAGCGCCAGAGGCAUCCUCAAGUUUAACUGUUUUUU
# antisense: AAAAAACAGUUAAACUUGAGGAUGCCUCUGGCGCUGAACAAAAGACGAUUGAUGCUACUGCGACUGCUAUUUUAAAAAAGAAGAAAAAGCCAAAUUCCUUAAUUGUAACAGAUGCCAUCAACGAUGAUAACUCUGUUAUUGCACUGUCAAAUAAUACCAUGGAAACUUUGCAGCUUUUUCGUGGAGAUACUGUCCUAGUUAAGGGGAAGAAGCGAAAGGAUACUGUUUUAAUUGUACUCGCAGAUGAUGAUUUAGAUGACGGGAGUGCUCGUAUGAAUCGUGUUGUCCGACACAACCUUA
# B5: GS3613 (nucleic acid)
# sense: UGUAGCCGCAACAGUUUCAGCUGUCCCAGCUAGUCCUUCUGAUUGAAGUUUAUCAUUAGUAAUCCCUUUAGCGAUGGCGCCAUUAGUACCUUCGGUUGAGUUGCCAACAUUAGAUACUUCGCCAGCACCAUCAGAUACAUGUGUAGUUAAUUCUUCAGAGGUCUUGUCCGGACUAUCUAUUGCGAUCUUUACUGCAAUCUCACGACCUUGAACUUCUUUUCCAUUCAUUUCGGCAACAGCCCUAUUUUGAAGUUCAUUAGAUGCUAAGUUCACAAAGCCAAACCCACGGCCUUUCCGAGGUUCGUUGCGGGCCUGAAGCUUUUUAACCAUGAAUUUUGGAAUAGGACGCA
# antisense: UGCGUCCUAUUCCAAAAUUCAUGGUUAAAAAGCUUCAGGCCCGCAACGAACCUCGGAAAGGCCGUGGGUUUGGCUUUGUGAACUUAGCAUCUAAUGAACUUCAAAAUAGGGCUGUUGCCGAAAUGAAUGGAAAAGAAGUUCAAGGUCGUGAGAUUGCAGUAAAGAUCGCAAUAGAUAGUCCGGACAAGACCUCUGAAGAAUUAACUACACAUGUAUCUGAUGGUGCUGGCGAAGUAUCUAAUGUUGGCAACUCAACCGAAGGUACUAAUGGCGCCAUCGCUAAAGGGAUUACUAAUGAUAAACUUCAAUCAGAAGGACUAGCUGGGACAGCUGAAACUGUUGCGGCUACA
# B6: GS3603 (nucleic acid)
# sense: AGUCCAAAAGAGUCCAGGAGUUCGGUAUCGGAUCAUAACACCAAACAUCGUUAUACCAUUGAAGACCAUUUGUUCCGCCAAACAAGUAAAGCUUUUCAUUAUAUGUCACAACUGAGUGAUUUGUUCUAGCUGAUGGUAUUUGUCCUACUGGGGGUCCACCAUCCUCACUAUUUUUAAUGAGAAUUUCCCACCUGUUCGUAGGGACUUGCAAAAGAUUCAAAUCAAAAGCCACAAGGUCAUUCAUAAAAUAACCCUCUACUUGCCCCCCGAAUACGUAGAUUUUAGACCCUAGUAUAUUGA
# antisense: UCAAUAUACUAGGGUCUAAAAUCUACGUAUUCGGGGGGCAAGUAGAGGGUUAUUUUAUGAAUGACCUUGUGGCUUUUGAUUUGAAUCUUUUGCAAGUCCCUACGAACAGGUGGGAAAUUCUCAUUAAAAAUAGUGAGGAUGGUGGACCCCCAGUAGGACAAAUACCAUCAGCUAGAACAAAUCACUCAGUUGUGACAUAUAAUGAAAAGCUUUACUUGUUUGGCGGAACAAAUGGUCUUCAAUGGUAUAACGAUGUUUGGUGUUAUGAUCCGAUACCGAACUCCUGGACUCUUUUGGACU
# Test system: E. necator
# Assay: Leaf disc assay, dry inoculum (settling tower), decrease in disease severity / hyphal growth (Example 2)
# Conditions: decrease in disease severity (hyphal growth) relative to untreated control; time point 1 (untreated control hyphal growth ≥50%); value ± SE
row,Molecule,% decrease =/− SE TP1
1,B1,10 ± 6%
2,B2,13 ± 8%
3,B3,22 ± 6%
4,B4,3 ± 6%
5,B5,11 ± 3%

# Same assay, conditions: decrease in disease severity (hyphal growth) relative to untreated control; time point 2; value ± SE
row,Molecule,% decrease =/− SE TP2
1,B1,5 ± 6%
2,B2,9 ± 6%
3,B6,7 ± 5%
4,B4,9 ± 7%
